In patent publication US20220064294A1 (ARCUS BIOSCIENCES, published 2022):

B1: Ch21B9 (antibody, human IgG1, V domains shown)
VH: EVQLVESGGGLVKPGGSLKLSCTASGFTFSSYAMSWVRQSPEKRLEWVAEISSGGSYTYYTDTVTGRFTISRDNAKNTLYLEMSSLRSEDTAMYYCARKRRDYYGMDYWGQGTSVTVSS
VL: DVQITQSPSYLAASPGETITINCRASKSISKYLAWYQEKPGKTNKLLIYSGSTLQTGIPSRFSGSGSGTDFTLTISSLEPEDFAMYYCQQHNEYPWTFGGGTKLEIK
notes: also called recombinant anti-TIGIT mouse/human chimera antibody 21B9
B2: Ch21B16 (antibody, human IgG1, V domains shown)
VH: EVQLVESGGGLVKPGGSLKLSCAASGFTFSTYAMSWVRQSPEKRLEWVAEISSGGTYTYFPDTVTGRFTISRDNAKNTLYLEMSSLRSEDTAMYYCARKRRDYYAMDYWGQGTSVTVSS
VL: DVQITQSPSYLAASPGETITINCRASKSISKYLAWYQEKPGKTNKLLIYSGSTLQSGIPSRFSGSGSGTDFTLTISSLEPEDFAVYYCQQHNEYPWTFGGGTKLEIK
notes: also called recombinant anti-TIGIT mouse/human chimera antibody 21B16
B3: Ch28O12 (antibody, human IgG1, V domains shown)
VH: EVQLVESGGGLVKPGGSLKLSCAASGFTFSNYAMSWVRQSPEKRLEWVAEISGGGSYTYHPDTVTGRFTISRDNAKNTLYLEMSSLRSEDTAMYYCARKRRDYYAMDYWGQGTSVTVSS
VL: DVQITQSPSYLAASPGETITINCRASKSISKYLAWYQEKPGKTNKLLIYSGSTLQSGIPSRFSGSGSGTDFTLTISSLEPEDFAMYYCQQHNEYPWTFGGGTKLEIK
notes: also called recombinant anti-TIGIT mouse/human chimera antibody 28O12
B4: Ch22B22 (antibody, human IgG1, V domains shown)
VH: EVQLVESGGGLVKPGGSLKLSCAASGFTFSSYAMSWVRQSPEKRLEWVAEISSGGSYTYYPDTVTGRFTISRDNAKNTLYLEMSSLRSEDTAMYYCARKRRDYYAMDYWGQGTSVTVSS
VL: DVQITQSPSYLAASPGETITINCRASKSISKYLAWYQEKPGKTNKLLIYSGSTLQSGIPSRFSGSGSGTDFTLTISSLEPEDFAMYYCQQHNEYPWTFGGGTKLEIK
notes: Expressed in HEK293, purified on Protein A; also called recombinant anti-TIGIT mouse/human chimera antibody 22B22
B5: Ch24F8 (antibody, human IgG1, V domains shown)
VH: DVQLQESGPDLVKPSQSLSLTCTVTGYSITSGYSWHWIRQFPGNKLDWMGYVHYSGSTNYNPSLKSRISITRDTSKNQFFLQLNSVTTEDTATFYCARMDYGNYGGAMDYWGQGTSVTVSS
VL: EIVMTQSHKFMSTSVGDRVSITCKASQDVRTAVAWYQQKPGQSPKLLIYSASYRYTGVPDRFTGSGSGTDFTFTISSVQAEDLAVYYCQQYYSTQWTFGGGTKLEIK
notes: also called full-length chimera antibody of 24F8 mouse VH+VL and human IgG1/kappa constant domains
B6: 30M18 (antibody, V domains shown)
VH: EVQLQQSGPELVKPGASVKISCKTSGYTFTEYTMHWVKQSHGKSLEWIGGINPNNGGTSYNQKFKGKATLTVDKSSSTAYMELRSLTSEDSAVYYCARSGHMDYGYVYWGQGTTLTVSS
VL: DIVMTQSHKFMSTSVGDRVSITCKASQYVSTAVAWYQQKPGQSPKLLIYSPSYRYTGVPDRFTGSGSGTDFTFTISSVQAEDLAVYYCQQHYSTPWTFGGGTKLEIK
notes: Mouse monoclonal antibody purified from hybridoma on Protein G; also called mAb 30M18; mouse anti-TIGIT clone 30M18
B7: Ch5J24 (antibody, human IgG1, V domains shown)
VH: QVQLQQSGAELVRPGTSVKMSCKAAGYTFTNHWIGWVKQRPGHGLEWIGDIYPGGGYTNYNEKFKGKATLTADTSSSTAYMYLSSLTSEDSAIYYCARSYGYDLYAMDYWGQGTSVTVSS
VL: DIQMTQSPSSLSASLGERVSLTCRASQEISGYLSWLQQKPDGTIKRLIYAASTLGSGVPKRFSGSRSGSDYSLTISSLESEDFADYYCLQYDSYPFTFGAGTKLELK
notes: also called recombinant anti-TIGIT mouse/human chimera antibody 5J24
B8: Ch30M18 (antibody, human IgG1, V domains shown)
VH: EVQLQQSGPELVKPGASVKISCKTSGYTFTEYTMHWVKQSHGKSLEWIGGINPNNGGTSYNQKFKGKATLTVDKSSSTAYMELRSLTSEDSAVYYCARSGHMDYGYVYWGQGTTLTVSS
VL: DIVMTQSHKFMSTSVGDRVSITCKASQYVSTAVAWYQQKPGQSPKLLIYSPSYRYTGVPDRFTGSGSGTDFTFTISSVQAEDLAVYYCQQHYSTPWTFGGGTKLEIK
notes: also called recombinant anti-TIGIT mouse/human chimera antibody 30M18

Legend:
[1] = target: T1, human TIGIT, full length, on cells (human, UniProt Q495A1 22-244); test: flow cytometry, endogenous TIGIT on isolated human CD4+ T cells
T1 construct: also called hTIGIT; hTIGIT-CHO
T1 sequence: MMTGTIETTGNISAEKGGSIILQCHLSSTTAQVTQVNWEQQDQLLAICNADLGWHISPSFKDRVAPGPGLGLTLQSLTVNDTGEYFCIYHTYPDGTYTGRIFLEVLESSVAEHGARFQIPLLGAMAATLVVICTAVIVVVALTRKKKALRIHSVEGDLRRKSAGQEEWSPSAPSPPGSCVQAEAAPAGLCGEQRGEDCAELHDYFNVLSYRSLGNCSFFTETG
Procedure: (§1) The ability of chimera anti-TIGIT antibodies to bind to endogenously expressed TIGIT on isolated human CD4⁺ and CD8⁺ cells was tested using a flow cytometry assay. Human CD4⁺ or CD8⁺ T cells were isolated from human whole blood using RosetteSep™ Human CD4⁺ T cell Enrichment Cocktail (Stemcell, Cat #15022) or Human CD8⁺ T cell enrichment Cocktail (Stemcell, […]), respectively. […] However, differences in max binding activity (MFImax) was observed between clones.

[2] = target: T1, human TIGIT, full length, on cells; test: flow cytometry on hTIGIT-CHO cells
Procedure: (§2) These clones were further expanded, and antibodies were purified using a Protein G column. These purified antibodies were tested for binding to human and cyno TIGIT expressed on cell surface by flow cytometry. Stable CHO-K1 cell lines expressing full length human TIGIT clone 2A7 (Swiss-Prot Q495A1; SEQ ID NO: 80) or full length cyno TIGIT clone C10 (Swiss-Prot A0A2K5UW92; SEQ ID NO: 84) were developed. For the flow assay, cells were collected and incubated in 100 μL of HBSS buffer in the presence (or absence) of various concentrations of antibodies for 1 hr at 4° C. After washing with HBSS, antibody binding on cells was detected with 2 μg/mL of Alexa488-labeled goat anti-mouse IgG antibody (ThermoFisher Scientific, Cat #A-11001) for 30 min at 4° C. Cells were then washed and resuspended in PBS and subjected to flow cytometry using an Attune NxT flow cytometer (ThermoFisher Scientific, Waltham, Mass.). The geometric mean of the fluorescence intensity was obtained for the whole single cell population. Antibodies capable of binding to both human and cyno TIGIT expressed on cell surface were further tested for their blocking activity against recombinant human CD155 binding to human TIGIT on the surface of CHO cells. CHO-hTIGIT cells (10⁵ cells) were incubated with 2.5 μg/mL hCD155-Fc protein in the presence of various concentrations of antibody at room temperature for 1 hr. […] Cells were then washed and subjected to flow cytometry analysis.
(§3) The binding capability of these chimera anti-TIGIT antibodies to cell surface overexpressed human and cyno TIGIT was confirmed utilizing the flow cytometry assay previously described. After incubation of chimera anti-TIGIT antibody with hTIGIT-CHO or cTIGIT-CHO, bound antibody was detected using Alexa488 conjugated goat anti-human IgG antibody (ThermoFisher Scientific, Cat #A-11013). Antibody functional activity in inhibiting recombinant hCD155-hFc binding to hTIGIT-CHO-K1 cells was also determined using flow assay as previously described.

[3] = target: T1, human TIGIT, full length, on cells; test: flow cytometry, inhibition of hCD155-hFc binding to hTIGIT-CHO-K1 cells
Procedure: as §2, §3

[4] = target: T1, human TIGIT, full length, on cells; test: flow cytometry, endogenous TIGIT on isolated human CD8+ T cells
Procedure: as §1

[5] = target: T2, cynomolgus monkey TIGIT, full length, on cells (cynomolgus monkey); test: flow cytometry on cTIGIT-CHO cells
T2 construct: Whole entry of 312 amino acids; also called cyno TIGIT; cTIGIT
Procedure: as §2, §3

[6] = target: T3, soluble His-tagged TIGIT (Acro Biosystems, Cat #No. TIT-H52H3) (human, UniProt Q495A1 22-141); test: SPR, ProteOn XPR36, antibody on Protein A chip, soluble His-tagged TIGIT as analyte, 25 C
T3 construct: Bought protein; also called His-tagged human TIGIT
T3 sequence (looked up): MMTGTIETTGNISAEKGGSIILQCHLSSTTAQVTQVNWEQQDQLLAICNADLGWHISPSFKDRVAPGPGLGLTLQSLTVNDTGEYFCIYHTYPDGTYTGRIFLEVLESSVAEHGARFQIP
Procedure: The kinetic binding of these recombinant anti-TIGIT antibodies to human TIGIT was determined by surface plasmon resonance (SPR) using a Bio-Rad ProteOn XPR36 instrument. Recombinant antibodies were immobilized using a Protein A coated GLC sensor chip, and soluble His-tagged TIGIT (Acro Biosystems, Cat #No. TIT-H52H3) was used as the analyte. The binding constants were determined at 25° C.

cTIGIT-His = target: T4, cTIGIT-His (cynomolgus monkey); test: SPR, Biacore T200, antibody captured on anti-human IgG chip, cTIGIT-His as analyte
T4 construct: also called His-tagged cyno TIGIT protein extracellular domain; soluble cTIGIT-His
T4 chain: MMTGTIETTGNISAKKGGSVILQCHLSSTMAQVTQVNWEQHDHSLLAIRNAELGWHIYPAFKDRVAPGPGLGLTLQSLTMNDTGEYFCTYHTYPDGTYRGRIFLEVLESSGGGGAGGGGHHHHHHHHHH
Procedure: (§4) The purified, full-length antibodies Hu24F8.1-IgG1.AA (containing VH1+VL2) and Hu24F8.2-IgG1.AA (containing VH2+VL2), together with the full-length chimera antibody of 24F8 mouse VH+VL and human IgG1/kappa constant domains (Ch24F8), were analyzed by SPR using a Biacore T200 instrument with antibody capture using an anti-human IgG coated chip and soluble hTIGIT-His or cTIGIT-His as the analyte.

hTIGIT-His = target: T5, hTIGIT-His (human); test: SPR, Biacore T200, antibody captured on anti-human IgG chip, hTIGIT-His as analyte
T5 construct: also called His-tagged human TIGIT protein extracellular domain; soluble hTIGIT-His
T5 chain: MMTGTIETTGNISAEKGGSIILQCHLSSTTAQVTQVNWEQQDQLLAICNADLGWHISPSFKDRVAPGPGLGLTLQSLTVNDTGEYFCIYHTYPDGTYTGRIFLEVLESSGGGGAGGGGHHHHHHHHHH
Procedure: as §4

[7] = target: T1, human TIGIT, full length, on cells; test: flow cytometry on CHO-K1 cells expressing human TIGIT
Procedure: as §2

[8] = target: T1, human TIGIT, full length, on cells; test: flow cytometry, inhibition of hCD155-Fc binding to CHO-hTIGIT cells
Procedure: as §2

[9] = target: T2, cynomolgus monkey TIGIT, full length, …; test: flow cytometry on CHO-K1 cells expressing cyno TIGIT
Procedure: as §2

Binder | CD4+ MFImax [1] [MFI] | EC50 [1] [nM] | EC50 [2] [nM] | IC50 [3] [nM] | CD8+ MFImax [4] [MFI] | EC50 [4] [nM] | EC50 [5] [nM] | Kd [6] [nM] | koff [6] [s⁻¹] | kon [6] [M⁻¹ s⁻¹] | Kd (cTIGIT-His) [nM] | koff (cTIGIT-His) [s⁻¹] | kon (cTIGIT-His) [M⁻¹ s⁻¹] | Kd (hTIGIT-His) [nM] | koff (hTIGIT-His) [s⁻¹] | kon (hTIGIT-His) [M⁻¹ s⁻¹] | EC50 [7] [nM] | IC50 [8] [nM] | EC50 [9] [nM]
B1 | 150 | 0.029 | 0.102 | 0.8 | 4500 | 0.062 | 0.18 | 7.1 | 0.074 | 1.05e+07 |  |  |  |  |  |  |  |  | 
B2 | 180 | 0.119 | 0.12 | 0.2 | 5200 | 0.16 | 0.42 | 6.3 | 0.00929 | 1.47e+06 |  |  |  |  |  |  |  |  | 
B3 | 190 | 0.141 | 0.159 | 0.48 | 7200 | 0.249 | 0.358 | 0.904 | 0.00113 | 1.26e+06 |  |  |  |  |  |  |  |  | 
B4 | 140 | 0.097 | 0.16 | 1.16 | 5000 | 0.175 | 0.24 | 9.78 | 0.0141 | 1.44e+06 |  |  |  |  |  |  |  |  | 
B5 | 210 | 0.13 | 0.15 | 0.62 | 5800 | 0.177 | 0.199 | 0.035 | 7.5e-05 | 2.15e+06 | 1.66 | 0.00109 | 658000 | 0.183 | 0.000156 | 853000 |  |  | 
B6 |  |  |  |  |  |  |  |  |  |  |  |  |  |  |  |  | 0.825 | 2.19 | 1.17
B7 | 125 | 0.073 | 0.131 | 0.7 | 4500 | 0.117 | 0.212 | 3.85 | 0.0214 | 5.57e+06 |  |  |  |  |  |  |  |  | 
B8 | 125 | 0.197 | 0.336 | 2.18 | 3500 | 0.293 | 6.14 | 2.38 | 0.00173 | 727000 |  |  |  |  |  |  |  |  | 
